Data reported in patent US20220010021A1 (Sanofi, published 2022).

T1: beta-Klotho (KLB) (Homo sapiens (Human), UniProt Q86Z14 1-996)
T1 construct: also called β-Klotho; not shown: C-terminal His tag of the bought R&D Systems protein
T1 sequence: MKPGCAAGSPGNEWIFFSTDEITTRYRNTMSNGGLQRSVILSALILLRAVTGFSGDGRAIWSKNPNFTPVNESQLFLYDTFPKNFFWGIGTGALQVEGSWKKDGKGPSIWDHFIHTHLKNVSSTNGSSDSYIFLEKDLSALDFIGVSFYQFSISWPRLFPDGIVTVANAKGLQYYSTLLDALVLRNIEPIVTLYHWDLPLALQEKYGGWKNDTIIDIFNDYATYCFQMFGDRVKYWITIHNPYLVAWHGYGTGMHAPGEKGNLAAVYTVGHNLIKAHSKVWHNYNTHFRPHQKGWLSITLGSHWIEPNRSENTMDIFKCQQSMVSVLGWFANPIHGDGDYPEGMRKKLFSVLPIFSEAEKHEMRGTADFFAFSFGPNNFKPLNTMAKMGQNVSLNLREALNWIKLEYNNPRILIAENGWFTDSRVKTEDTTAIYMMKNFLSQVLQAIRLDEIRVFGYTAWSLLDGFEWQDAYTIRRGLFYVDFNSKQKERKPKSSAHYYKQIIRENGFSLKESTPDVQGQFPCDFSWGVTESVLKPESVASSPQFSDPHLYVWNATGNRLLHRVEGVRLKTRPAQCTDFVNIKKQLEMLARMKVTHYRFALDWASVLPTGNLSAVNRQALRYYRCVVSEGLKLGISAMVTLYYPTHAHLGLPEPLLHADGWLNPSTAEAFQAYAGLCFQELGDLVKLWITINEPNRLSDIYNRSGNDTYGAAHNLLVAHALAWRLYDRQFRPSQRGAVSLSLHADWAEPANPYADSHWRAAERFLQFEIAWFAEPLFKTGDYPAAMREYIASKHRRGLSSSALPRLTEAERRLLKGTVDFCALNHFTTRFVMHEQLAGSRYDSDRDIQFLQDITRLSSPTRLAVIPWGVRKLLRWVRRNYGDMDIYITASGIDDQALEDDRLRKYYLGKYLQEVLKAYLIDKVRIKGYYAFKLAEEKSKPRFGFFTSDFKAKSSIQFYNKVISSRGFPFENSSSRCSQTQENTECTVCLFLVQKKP

T2: human beta-Klotho (KLB) (human, UniProt Q86Z14 53-997)
T2 construct: the BLI off-rate screen was run with human and with monkey KLB; also called human KLB; ß-Klotho
T2 sequence (looked up): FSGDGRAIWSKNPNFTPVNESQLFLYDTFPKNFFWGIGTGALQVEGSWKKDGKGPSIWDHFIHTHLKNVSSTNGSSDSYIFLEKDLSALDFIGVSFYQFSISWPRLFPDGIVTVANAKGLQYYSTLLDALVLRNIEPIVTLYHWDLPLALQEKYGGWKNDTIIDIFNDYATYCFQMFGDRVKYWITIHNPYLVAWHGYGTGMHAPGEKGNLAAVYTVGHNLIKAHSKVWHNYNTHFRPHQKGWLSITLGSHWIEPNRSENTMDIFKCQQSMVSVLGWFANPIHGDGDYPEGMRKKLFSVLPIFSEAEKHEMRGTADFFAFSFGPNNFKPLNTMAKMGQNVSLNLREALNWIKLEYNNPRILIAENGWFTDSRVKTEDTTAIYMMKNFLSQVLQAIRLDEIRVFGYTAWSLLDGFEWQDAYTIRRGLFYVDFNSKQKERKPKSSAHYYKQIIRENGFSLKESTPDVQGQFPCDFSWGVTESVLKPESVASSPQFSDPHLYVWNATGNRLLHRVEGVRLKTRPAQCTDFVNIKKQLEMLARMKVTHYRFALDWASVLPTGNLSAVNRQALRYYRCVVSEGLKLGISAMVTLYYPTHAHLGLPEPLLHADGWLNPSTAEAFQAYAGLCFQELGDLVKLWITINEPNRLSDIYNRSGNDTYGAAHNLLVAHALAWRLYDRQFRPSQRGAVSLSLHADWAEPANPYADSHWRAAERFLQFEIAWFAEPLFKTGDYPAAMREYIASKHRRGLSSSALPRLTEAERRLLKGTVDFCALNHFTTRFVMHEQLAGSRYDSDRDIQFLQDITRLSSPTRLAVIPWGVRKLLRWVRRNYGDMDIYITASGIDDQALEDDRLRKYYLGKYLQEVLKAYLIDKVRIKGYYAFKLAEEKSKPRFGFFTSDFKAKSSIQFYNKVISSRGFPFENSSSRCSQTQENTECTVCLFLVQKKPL


Tests used:
[1] = biological target: cell surface receptor composed of the tyrosine kinase receptor FGFR1c and co-receptor beta-Klotho (KLB) (human, UniProt P11362 22-822; Q86Z14 1-1044); test: cell-based or functional assay
Chain of cell surface receptor composed of the tyrosine kinase receptor FGFR1c and co-receptor beta-Klotho (KLB) (P11362 22-822, one chain of several): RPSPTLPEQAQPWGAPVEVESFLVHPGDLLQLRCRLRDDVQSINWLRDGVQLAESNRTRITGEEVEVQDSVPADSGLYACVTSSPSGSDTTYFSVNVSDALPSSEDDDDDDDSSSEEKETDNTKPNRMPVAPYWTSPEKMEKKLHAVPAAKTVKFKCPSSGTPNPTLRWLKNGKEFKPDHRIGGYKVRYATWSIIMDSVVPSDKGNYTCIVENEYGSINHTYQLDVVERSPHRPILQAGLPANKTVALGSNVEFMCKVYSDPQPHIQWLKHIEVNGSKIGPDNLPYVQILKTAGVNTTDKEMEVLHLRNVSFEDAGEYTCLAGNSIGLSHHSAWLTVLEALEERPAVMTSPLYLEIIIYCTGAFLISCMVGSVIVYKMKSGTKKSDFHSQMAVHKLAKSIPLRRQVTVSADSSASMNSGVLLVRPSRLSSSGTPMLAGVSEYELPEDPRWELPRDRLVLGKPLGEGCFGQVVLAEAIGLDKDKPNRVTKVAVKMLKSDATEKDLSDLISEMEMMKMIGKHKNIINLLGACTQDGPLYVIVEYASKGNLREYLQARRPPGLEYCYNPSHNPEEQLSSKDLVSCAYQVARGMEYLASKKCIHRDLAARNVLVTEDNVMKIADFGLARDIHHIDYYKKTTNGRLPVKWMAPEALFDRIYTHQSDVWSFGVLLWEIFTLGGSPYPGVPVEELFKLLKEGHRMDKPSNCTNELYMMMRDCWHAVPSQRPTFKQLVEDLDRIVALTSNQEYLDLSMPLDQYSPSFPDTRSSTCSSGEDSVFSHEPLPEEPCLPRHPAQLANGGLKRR

beta-Klotho (KLB) = biological target: T1, beta-Klotho (KLB); test: BLI (Octet) off-rate screening, mAb from supernatant on anti-hIgG Fc sensor, 5 nmol/L KLB;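 note: dissociation followed for 1800 s in D-PBS plus 0.1% BSA, antibody supernatants applied at 25 µg/mL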
[2] = biological target: cell-surface receptor complex of human FGFR1c and beta-Klotho (KLB) on iLite FGF21 reporter cells (human, UniProt P11362 22-822; Q86Z14 1-1044); test: cell-based or functional assay
human beta-Klotho (KLB) = biological target: T2, human beta-Klotho (KLB); test: BLI off-rate screening (Octet HTX), antibody from supernatant on anti-hIgG Fc capture sensors, KLB 5 nmol/L as analyte

Mean E max, Luciferase gene reporter assay [1]	Mean EC50, Luciferase gene reporter assay [1]	koff (beta-Klotho (KLB))	Mean E max (%), Luciferase gene reporter assay [2]	Mean EC50 (nM), Luciferase gene reporter assay [2]	koff (human beta-Klotho (KLB))	Binder
–	–	–	111%	0.121 nM	3.7e-05 s⁻¹	16H7 variant with single point mutation V98Q in the light chain (antibody, V domains shown, Tested from HEK293-F supernatant) VH: not shown VL: SYVLTQPPSVSVAPGQTARITCGGNNIGSESVHWYQQKPGQAPVLVVYDDSDRPSGIPERFSGSNSGNTATLTISRVEAGDEADYYCQVWDGNSDHVQFGGGTKLTVLG
–	–	–	99%	0.088 nM	3.1e-05 s⁻¹	16H7 variant with single point mutation V98T in the light chain (antibody, V domains shown, Tested from HEK293-F supernatant) VH: not shown VL: SYVLTQPPSVSVAPGQTARITCGGNNIGSESVHWYQQKPGQAPVLVVYDDSDRPSGIPERFSGSNSGNTATLTISRVEAGDEADYYCQVWDGNSDHVTFGGGTKLTVLG
–	–	–	106%	0.111 nM	9e-05 s⁻¹	16H7 variant with single point mutation V98K in the light chain (antibody, V domains shown, Tested from HEK293-F supernatant) VH: not shown VL: SYVLTQPPSVSVAPGQTARITCGGNNIGSESVHWYQQKPGQAPVLVVYDDSDRPSGIPERFSGSNSGNTATLTISRVEAGDEADYYCQVWDGNSDHVKFGGGTKLTVLG
–	–	–	103%	0.107 nM	1.8e-05 s⁻¹	16H7 variant with single point mutation V98H in the light chain (antibody, V domains shown, Tested from HEK293-F supernatant) VH: not shown VL: SYVLTQPPSVSVAPGQTARITCGGNNIGSESVHWYQQKPGQAPVLVVYDDSDRPSGIPERFSGSNSGNTATLTISRVEAGDEADYYCQVWDGNSDHVHFGGGTKLTVLG
–	–	–	99%	0.139 nM	4.6e-05 s⁻¹	16H7 variant with single point mutation V98A in the light chain (antibody, V domains shown, Tested from HEK293-F supernatant) VH: not shown VL: SYVLTQPPSVSVAPGQTARITCGGNNIGSESVHWYQQKPGQAPVLVVYDDSDRPSGIPERFSGSNSGNTATLTISRVEAGDEADYYCQVWDGNSDHVAFGGGTKLTVLG
–	–	–	105%	0.121 nM	0.00013 s⁻¹	16H7 variant with single point mutation V98L in the light chain (antibody, V domains shown, Tested from HEK293-F supernatant) VH: not shown VL: SYVLTQPPSVSVAPGQTARITCGGNNIGSESVHWYQQKPGQAPVLVVYDDSDRPSGIPERFSGSNSGNTATLTISRVEAGDEADYYCQVWDGNSDHVLFGGGTKLTVLG
111%	121 pM	3.7e-05 s⁻¹	–	–	–	16H7 variant with light chain substitution V98Q (antibody, human IgG4 S228P, lambda, V domains shown, IgG4 backbone was used) VH: not shown VL: SYVLTQPPSVSVAPGQTARITCGGNNIGSESVHWYQQKPGQAPVLVVYDDSDRPSGIPERFSGSNSGNTATLTISRVEAGDEADYYCQVWDGNSDHVQFGGGTKLTVLG
–	–	–	105%	0.118 nM	1.1e-05 s⁻¹	16H7 variant with single point mutation V98G in the light chain (antibody, V domains shown, Tested from HEK293-F supernatant) VH: not shown VL: SYVLTQPPSVSVAPGQTARITCGGNNIGSESVHWYQQKPGQAPVLVVYDDSDRPSGIPERFSGSNSGNTATLTISRVEAGDEADYYCQVWDGNSDHVGFGGGTKLTVLG
–	–	–	99%	0.099 nM	0.00011 s⁻¹	16H7 variant with single point mutation V98R in the light chain (antibody, V domains shown, Tested from HEK293-F supernatant) VH: not shown VL: SYVLTQPPSVSVAPGQTARITCGGNNIGSESVHWYQQKPGQAPVLVVYDDSDRPSGIPERFSGSNSGNTATLTISRVEAGDEADYYCQVWDGNSDHVRFGGGTKLTVLG

More lines, now with the values behind:

Binder	Mean E max, Luciferase gene reporter assay [1]	Mean EC50, Luciferase gene reporter assay [1]	koff (beta-Klotho (KLB))	Mean E max (%), Luciferase gene reporter assay [2]	Mean EC50 (nM), Luciferase gene reporter assay [2]	koff (human beta-Klotho (KLB))
16H7 variant with light chain substitution V97N (antibody, human IgG4 S228P, lambda, V domains shown, IgG4 backbone was used) VH: not shown VL: SYVLTQPPSVSVAPGQTARITCGGNNIGSESVHWYQQKPGQAPVLVVYDDSDRPSGIPERFSGSNSGNTATLTISRVEAGDEADYYCQVWDGNSDHNVFGGGTKLTVLG	95%	206 pM	0.00033 s⁻¹	–	–	–
16H7 variant with single point mutation V98S in the light chain (antibody, V domains shown, Tested from HEK293-F supernatant) VH: not shown VL: SYVLTQPPSVSVAPGQTARITCGGNNIGSESVHWYQQKPGQAPVLVVYDDSDRPSGIPERFSGSNSGNTATLTISRVEAGDEADYYCQVWDGNSDHVSFGGGTKLTVLG	–	–	–	107%	0.094 nM	3.9e-05 s⁻¹
16H7 variant with light chain substitution V97T (antibody, human IgG4 S228P, lambda, V domains shown, IgG4 backbone was used) VH: not shown VL: SYVLTQPPSVSVAPGQTARITCGGNNIGSESVHWYQQKPGQAPVLVVYDDSDRPSGIPERFSGSNSGNTATLTISRVEAGDEADYYCQVWDGNSDHTVFGGGTKLTVLG	99%	142 pM	0.0001 s⁻¹	–	–	–
16H7 variant with light chain substitution V98F (antibody, human IgG4 S228P, lambda, V domains shown, IgG4 backbone was used) VH: not shown VL: SYVLTQPPSVSVAPGQTARITCGGNNIGSESVHWYQQKPGQAPVLVVYDDSDRPSGIPERFSGSNSGNTATLTISRVEAGDEADYYCQVWDGNSDHVFFGGGTKLTVLG	102%	161 pM	1.6e-05 s⁻¹	–	–	–
16H7 variant with light chain substitution V98I (antibody, human IgG4 S228P, lambda, V domains shown, IgG4 backbone was used) VH: not shown VL: SYVLTQPPSVSVAPGQTARITCGGNNIGSESVHWYQQKPGQAPVLVVYDDSDRPSGIPERFSGSNSGNTATLTISRVEAGDEADYYCQVWDGNSDHVIFGGGTKLTVLG	116%	105 pM	3.3e-05 s⁻¹	–	–	–
16H7 variant with light chain substitution V98P (antibody, human IgG4 S228P, lambda, V domains shown, IgG4 backbone was used) VH: not shown VL: SYVLTQPPSVSVAPGQTARITCGGNNIGSESVHWYQQKPGQAPVLVVYDDSDRPSGIPERFSGSNSGNTATLTISRVEAGDEADYYCQVWDGNSDHVPFGGGTKLTVLG	89%	131 pM	7.3e-05 s⁻¹	–	–	–
16H7 variant with light chain substitution V98M (antibody, human IgG4 S228P, lambda, V domains shown, IgG4 backbone was used) VH: not shown VL: SYVLTQPPSVSVAPGQTARITCGGNNIGSESVHWYQQKPGQAPVLVVYDDSDRPSGIPERFSGSNSGNTATLTISRVEAGDEADYYCQVWDGNSDHVMFGGGTKLTVLG	108%	114 pM	7.2e-05 s⁻¹	–	–	–
16H7 variant with light chain substitution V98N (antibody, human IgG4 S228P, lambda, V domains shown, IgG4 backbone was used) VH: not shown VL: SYVLTQPPSVSVAPGQTARITCGGNNIGSESVHWYQQKPGQAPVLVVYDDSDRPSGIPERFSGSNSGNTATLTISRVEAGDEADYYCQVWDGNSDHVNFGGGTKLTVLG	112%	111 pM	2.1e-05 s⁻¹	–	–	–
16H7 variant with light chain substitution V98C (antibody, human IgG4 S228P, lambda, V domains shown, IgG4 backbone was used) VH: not shown VL: SYVLTQPPSVSVAPGQTARITCGGNNIGSESVHWYQQKPGQAPVLVVYDDSDRPSGIPERFSGSNSGNTATLTISRVEAGDEADYYCQVWDGNSDHVCFGGGTKLTVLG	100%	105 pM	6.4e-05 s⁻¹	–	–	–
